According to patent US9662404B2, “Compositions and methods for the delivery of molecules into live cells” (The Texas A&M University System, priority 2013, dated 2017):
Ends that are not written are not given here.

Key:
[1] = tested on: Dorsal root ganglion F11 (DRG-F11) neuronal cells; assay: dTAT penetration into cells resistant to transfection; type: cell-based; details: 5 μM, 1 hour
Procedure: Dorsal root ganglion F11 (DRG-F11) neuronal cells are notoriously difficult to transfect. dTAT exposure was tested in DRG-F11 cells to determine whether the transfection difficulties also posed a barrier for dTAT. DRG-F11 cells were incubated for 1 hour with dTAT (5 μM).

[2] = tested on: HeLa cells; assay: Cell proliferation, MTT assay; type: cell-based; details: 5 μM, 1 h; up to 36 h after incubation
Procedure: (§1) In order to determine cells that had compromised plasma membranes, cells were treated with SYTOX® Green (SYTOX® Blue in some cases) and Hoechst (Invitrogen, Carlsbad, Calif.). SYTOX® dyes are cell-impermeable and stain the DNA of cells with compromised plasma membranes. The Hoechst dye is cell permeable and stains the DNA of all cells. Images were acquired using the green and blue filter. The green and blue images were used to count cells with a blue or green stained nucleus. Image J was used to count the dead (green) and total cells (blue). Cytotoxicity was determined from the ratio of SYTOX® Green positive cells/total number of cells. An MTT-assay was performed to determine the effect of the peptide on cell proliferation. Cells were seeded in a 6-well dish, grown and washed as described above. One well from the dish was incubated with 5 μM dTAT at 37° C. for 1 h. A second well was left untreated and served as control. […] Cells were trypsinized and seeded into 96-well dishes containing 200 μL of DMEM. The cells were then allowed to attach to the bottom of the dish for 12 h. […] After the incubation each sample was mixed and the absorbance at 600 nm was measured. […] A second control consisted of cells treated with the delivery peptide but to which no MTT was added to subtract the contribution of TMR from the measured absorbance. The absorbance of the negative control was subtracted from all samples.

[3] = tested on: neuronal cell line Neuro-2a and primary human dermal fibroblasts (HDF); assay: Cellular localization of dTAT in neuronal and primary cells; type: cell-based; details: 1 h incubation
Procedure: FIG. 11 illustrates the cellular localization of dTAT after 1 h incubation with neuronal cell line Neuro-2a (left panel) and primary human dermal fibroblasts (HDF) (right panel). Cells were incubated with dTAT, washed, and imaged with a 100× objective. […] FIG. 12 graphically illustrates the proliferation rate (absorbance in an MTT assay) of treated and untreated HeLa, Neuro-2a, and HDF cells.

[4] = tested on: HeLa cells expressing SNAPH2B; assay: Endosomal leakage efficiency with SNAP-Surface 488; details: 2.5 μM dTAT with 5 μM SNAP-Surface 488, 1 h
Procedure: HeLa cells were incubated with 5 μM SNAP-Surface® 488 for 1 h, washed and imaged. […] It should be noted that SNAP-Surface® 488 fluorescence is quenched (80%) before it reacts with the SNAP fusion tag.
HeLa cells were seeded in 8-well dishes, grown and washed as described in the prior section. Cells were then co-incubated with 5 M delivery peptide and with the cargo at the corresponding concentration for 1 h at 37° C. Cells were washed 3 times with PBS and nrL-15 and placed on the microscope. Images were acquired as described before. For transfection and expression of SNAP-H2B and TagCFP-mito, plasmids were mixed with Lipofectamine™ 2000 reagent in opti-MEM media and incubated at room temperature for 30 min. The DNA complex was added to previously seeded HeLa cells (80% confluent) on an 8-well dish and cells were kept at 37° C. for 24 h.

[5] = tested on: HeLa cells; assay: Cell viability, SYTOX exclusion assay; type: cell-based
Procedure: as §1

[6] = tested on: cells; assay: Whole-genome microarray analysis after dTAT treatment; type: cell-based; details: 5 μM, 1 h; analysis immediately, 1 h or 24 h after treatment
Procedure: To better determine the effect of dTAT exposure on a cell, a whole-genome microarray analysis was performed on cells treated with 5 μM dTAT for 1 h to determine whether transcriptional patterns are influenced. Analysis was performed immediately, 1 h, or 24 h after dTAT treatment. […] The straight lines represent 2-fold intensity change cut-offs.

## (CK(TMR)TAT)2 (CK(TMR)RKKRRQRRRG; also: dimer) [dTAT, dimer of two CK(TMR)-TAT monomers linked via a disulfide bond between the N-terminal cysteine residues]
[1]
  penetration into the cytosol: penetrates into the cytosol of DRG-F11 cells
[2]
  cell growth versus untreated cells: grow at the same rate as untreated cells
[3]
  cellular localization of fluorescence: cytosolic release
[4]
  cytosolic release: does not result in significant cytosolic release
[5]; 5 μM
  effect on cell viability: does not affect cell viability
[5]; 5 μM dTAT, 1 h incubation, 1, 24 and 48 h after incubation
  fraction of dead cells: below 5%
[6]
  transcriptional response on a whole-genome scale: minimal transcriptional perturbations
